Measured values from US20180051033, “INHIBITORS OF LATE SV40 FACTOR (LSF) AS CANCER CHEMOTHERAPEUTICS” (TRUSTEES OF BOSTON UNIVERSITY, published 2018).

Biological target: T1, LSF (TFCP2) (Homo sapiens, UniProt Q12800 SEQ:1-502)
T1 sequence: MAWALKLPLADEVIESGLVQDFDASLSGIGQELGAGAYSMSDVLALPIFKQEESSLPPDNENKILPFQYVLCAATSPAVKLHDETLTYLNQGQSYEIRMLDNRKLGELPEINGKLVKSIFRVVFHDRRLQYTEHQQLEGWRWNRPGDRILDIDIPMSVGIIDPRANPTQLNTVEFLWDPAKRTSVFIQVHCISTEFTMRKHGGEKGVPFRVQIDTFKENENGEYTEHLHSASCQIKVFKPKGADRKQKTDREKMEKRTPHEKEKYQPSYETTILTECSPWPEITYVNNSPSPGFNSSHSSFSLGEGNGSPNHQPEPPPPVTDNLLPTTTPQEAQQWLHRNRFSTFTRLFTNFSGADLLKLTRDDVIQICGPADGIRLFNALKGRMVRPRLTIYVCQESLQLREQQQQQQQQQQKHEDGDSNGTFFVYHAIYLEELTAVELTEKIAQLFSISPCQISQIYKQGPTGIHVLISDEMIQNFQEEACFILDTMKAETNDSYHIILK
Assay: EMSA; 40 mM KCl, 15 mM HEPES pH 7.9, 1 mM EDTA, 0.5 mM DTT, 5% glycerol, poly d(I-C), 30 C; FQI1 enhances binding at low and inhibits at higher concentration
Conditions: chain copies: 4 stated (tetrameric on DNA); label: 32P (radiolabelled)
Experimental: LSF was translated in vitro as previously described¹⁶ for use in EMSAs. Protein was preincubated with inhibitor or DMSO and then incubated with 0.5 μg poly d(I-C) for 15 min at 4° C. in 40 mM KCl, 15 mM HEPES pH 7.9, 1 mM EDTA, 0.5 mM DTT, 5% glycerol. Finally, radiolabelled double-stranded DNA ([…]—SEQ ID NO: 5- and its complement) were added for a 30-min incubation at 30° C. Results were visualized using a PhosphorImager and quantified using ImageQuant software.

B1: LSF EMSA site (dsDNA)
DNA 1: TGGCTGGTTATGGCTGGTCAGACTAG
DNA 2: CTAGTCTGACCAGCCATAACCAGCCA
B1: binds.
